The source of these data is article PMC2529288.

This experiment deals with Secretory leukoproteinase inhibitor (human (endogenous in A549)) (UniProt P03973).
UniProt P03973, sequence (P03973 26-132): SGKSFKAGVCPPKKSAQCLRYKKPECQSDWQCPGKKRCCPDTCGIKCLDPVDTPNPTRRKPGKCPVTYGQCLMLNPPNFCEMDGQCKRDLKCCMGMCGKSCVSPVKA

On to “neutrophil elastase (from UniProt P08246 30-267) (enzyme)”, for which the SLPI concentration (ELISA) in the lower Transwell compartment of A549 cells, 10 min after 10 nM NE was added to the lower compartment only, as % of control wells is 8.6 % of control and the SLPI concentration (ELISA) in the upper Transwell compartment of A549 cells, 10 min after 10 nM NE was added to the upper compartment only, as % of control wells was 10.6 % of control.
